# Laboratory results taken from IntAct's records for PubMed 12097473.
# B1: Kinesin-like protein KIF1B (Homo sapiens), O60333-3 (parent)
# chain: MSGASVKVAVRVRPFNSRETSKESKCIIQMQGNSTSIINPKNPKEAPKSFSFDYSYWSHTSPEDPCFASQNRVYNDIGKEMLLHAFEGYNVCIFAYGQTGAGKSYTMMGKQEESQAGIIPQLCEELFEKINDNCNEEMSYSVEVSYMEIYCERVRDLLNPKNKGNLRVREHPLLGPYVEDLSKLAVTSYTDIADLMDAGNKARTVAATNMNETSSRSHAVFTIVFTQKKHDNETNLSTEKVSKISLVDLAGSERADSTGAKGTRLKEGANINKSLTTLGKVISALAEVSKKKKKTDFIPYRDSVLTWLLRENLGGNSRTAMVAALSPADINYDETLSTLRYADRAKQIKCNAVINEDPNAKLVRELKEEVTRLKDLLRAQGLGDIIDTSMGSLTSSPSSCSLSSQVGLTSVTSIQERIMSTPGGEEAIERLKESEKIIAELNETWEEKLRKTEAIRMEREALLAEMGVAIREDGGTLGVFSPKKTPHLVNLNEDPLMSECLLYYIKDGITRVGQADAERRQDIVLSGAHIKEEHCIFRSERSNSGEVIVTLEPCERSETYVNGKRVSQPVQLRSGNRIIMGKNHVFRFNHPEQARAEREKTPSAETPSEPVDWTFAQRELLEKQGIDMKQEMEKRLQEMEILYKKEKEEADLLLEQQRLDADSDSGDDSDKRSCEESWKLITSLREKLPPSKLQTIVKKCGLPSSGKKREPIKMYQIPQRRRLSKDSKWVTISDLKIQAVKEICYEVALNDFRHSRQEIEALAIVKMKELCAMYGKKDPNERDSWRAVARDVWDTVGVGDEKIEDVMATGKGSTDVDDLKVHIDKLEDILQEVKKQNNMKDEEIKVLRNKMLKMEKVLPLIGSQEQKSPGSHKAKEPVGAGVSSTSENNVSKGDNGELAKEERVSQLMNGDPAFRRGRLRWMRQEQIRFKNLQQQEITKQLRRQNVPHRFIPPENRKPRFPFKSNPKHRNSWSPGTHIIITEDEVIELRIPKDDEARKGNKEESQEKGGKGAFKDPQFPWGSQGMRSQDHIQVSKQHINNQQQPPQLRWRSNSLNNGQPKSTRCQASASAESLNSHSGHPTADVQTFQAKRHIHQHRQSYCNYNTGGQLEGNAATSYQKQTDKPSHCSQFVTPPRMRRQFSAPNLKAGRETTV
# Variants of: B1
# Settings: with dlg1_rat Dlg1, Q62696
# Sequence of dlg1_rat Dlg1, Q62696 (Q62696 whole entry): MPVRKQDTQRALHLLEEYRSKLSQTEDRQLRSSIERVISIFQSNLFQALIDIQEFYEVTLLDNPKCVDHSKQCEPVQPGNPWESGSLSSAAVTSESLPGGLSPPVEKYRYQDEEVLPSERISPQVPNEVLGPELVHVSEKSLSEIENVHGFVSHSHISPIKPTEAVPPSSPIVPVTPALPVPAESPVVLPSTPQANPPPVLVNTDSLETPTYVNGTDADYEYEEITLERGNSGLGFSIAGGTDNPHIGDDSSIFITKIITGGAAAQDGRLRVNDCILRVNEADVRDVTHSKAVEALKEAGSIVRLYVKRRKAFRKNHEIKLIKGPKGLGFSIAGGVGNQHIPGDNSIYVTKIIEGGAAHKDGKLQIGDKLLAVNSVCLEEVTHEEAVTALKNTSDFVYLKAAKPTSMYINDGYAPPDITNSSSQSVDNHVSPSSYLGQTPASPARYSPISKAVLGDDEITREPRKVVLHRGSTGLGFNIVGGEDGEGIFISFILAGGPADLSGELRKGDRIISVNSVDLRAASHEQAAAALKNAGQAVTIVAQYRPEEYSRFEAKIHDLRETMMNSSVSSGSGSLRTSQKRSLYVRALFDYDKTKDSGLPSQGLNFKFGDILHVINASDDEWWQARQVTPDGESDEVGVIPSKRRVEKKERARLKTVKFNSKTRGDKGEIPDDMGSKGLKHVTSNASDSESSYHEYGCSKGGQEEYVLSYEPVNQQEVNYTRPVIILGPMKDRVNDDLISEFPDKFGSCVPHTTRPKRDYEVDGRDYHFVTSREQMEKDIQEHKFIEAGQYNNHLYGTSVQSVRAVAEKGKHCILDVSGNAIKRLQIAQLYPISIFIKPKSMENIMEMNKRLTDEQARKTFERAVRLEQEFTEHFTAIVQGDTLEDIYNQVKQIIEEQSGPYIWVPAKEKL
row,effect of a mutation on the interaction,Variant
1,decreasing interaction,V1153A

# Variants of: B1
# Settings: with magi2_rat Magi2, O88382
# Sequence of magi2_rat Magi2, O88382 (O88382 whole entry): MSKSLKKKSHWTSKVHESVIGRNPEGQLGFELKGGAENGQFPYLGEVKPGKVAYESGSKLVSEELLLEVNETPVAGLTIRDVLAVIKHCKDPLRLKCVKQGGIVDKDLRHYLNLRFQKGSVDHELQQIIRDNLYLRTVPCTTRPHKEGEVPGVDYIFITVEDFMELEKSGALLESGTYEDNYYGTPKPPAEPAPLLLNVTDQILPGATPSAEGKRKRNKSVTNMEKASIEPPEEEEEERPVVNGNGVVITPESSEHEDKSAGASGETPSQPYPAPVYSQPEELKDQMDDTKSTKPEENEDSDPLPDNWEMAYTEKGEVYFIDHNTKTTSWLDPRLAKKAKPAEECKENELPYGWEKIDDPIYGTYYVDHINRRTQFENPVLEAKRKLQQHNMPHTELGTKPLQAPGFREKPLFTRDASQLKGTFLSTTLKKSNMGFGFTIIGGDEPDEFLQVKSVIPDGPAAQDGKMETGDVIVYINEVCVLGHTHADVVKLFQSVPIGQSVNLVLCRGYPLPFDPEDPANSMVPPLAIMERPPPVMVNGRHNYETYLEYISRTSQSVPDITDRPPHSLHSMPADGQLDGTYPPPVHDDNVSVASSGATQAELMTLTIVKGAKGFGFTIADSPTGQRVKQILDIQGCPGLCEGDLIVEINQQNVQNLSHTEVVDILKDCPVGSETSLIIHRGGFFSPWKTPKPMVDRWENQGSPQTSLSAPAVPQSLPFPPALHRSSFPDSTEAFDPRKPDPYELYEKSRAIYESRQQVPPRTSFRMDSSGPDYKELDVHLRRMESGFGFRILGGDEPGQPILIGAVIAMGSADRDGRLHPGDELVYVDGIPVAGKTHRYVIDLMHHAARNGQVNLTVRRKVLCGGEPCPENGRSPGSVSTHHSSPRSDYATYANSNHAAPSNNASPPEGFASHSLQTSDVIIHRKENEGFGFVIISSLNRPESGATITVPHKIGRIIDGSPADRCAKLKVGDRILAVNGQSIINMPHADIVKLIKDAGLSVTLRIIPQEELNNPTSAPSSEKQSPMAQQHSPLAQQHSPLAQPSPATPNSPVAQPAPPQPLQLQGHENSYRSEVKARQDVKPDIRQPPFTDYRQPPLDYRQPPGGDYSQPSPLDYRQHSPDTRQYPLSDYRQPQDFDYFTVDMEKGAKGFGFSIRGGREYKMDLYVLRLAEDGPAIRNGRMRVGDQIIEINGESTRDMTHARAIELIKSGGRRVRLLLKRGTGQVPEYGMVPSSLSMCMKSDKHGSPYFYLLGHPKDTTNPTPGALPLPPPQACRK
row,effect of a mutation on the interaction,Variant
1,disrupting interaction,V1153A

# Variants of: B1
# Settings: with dlg1_human DLG1, Q12959
# Sequence of dlg1_human DLG1, Q12959 (Q12959 whole entry, looked up): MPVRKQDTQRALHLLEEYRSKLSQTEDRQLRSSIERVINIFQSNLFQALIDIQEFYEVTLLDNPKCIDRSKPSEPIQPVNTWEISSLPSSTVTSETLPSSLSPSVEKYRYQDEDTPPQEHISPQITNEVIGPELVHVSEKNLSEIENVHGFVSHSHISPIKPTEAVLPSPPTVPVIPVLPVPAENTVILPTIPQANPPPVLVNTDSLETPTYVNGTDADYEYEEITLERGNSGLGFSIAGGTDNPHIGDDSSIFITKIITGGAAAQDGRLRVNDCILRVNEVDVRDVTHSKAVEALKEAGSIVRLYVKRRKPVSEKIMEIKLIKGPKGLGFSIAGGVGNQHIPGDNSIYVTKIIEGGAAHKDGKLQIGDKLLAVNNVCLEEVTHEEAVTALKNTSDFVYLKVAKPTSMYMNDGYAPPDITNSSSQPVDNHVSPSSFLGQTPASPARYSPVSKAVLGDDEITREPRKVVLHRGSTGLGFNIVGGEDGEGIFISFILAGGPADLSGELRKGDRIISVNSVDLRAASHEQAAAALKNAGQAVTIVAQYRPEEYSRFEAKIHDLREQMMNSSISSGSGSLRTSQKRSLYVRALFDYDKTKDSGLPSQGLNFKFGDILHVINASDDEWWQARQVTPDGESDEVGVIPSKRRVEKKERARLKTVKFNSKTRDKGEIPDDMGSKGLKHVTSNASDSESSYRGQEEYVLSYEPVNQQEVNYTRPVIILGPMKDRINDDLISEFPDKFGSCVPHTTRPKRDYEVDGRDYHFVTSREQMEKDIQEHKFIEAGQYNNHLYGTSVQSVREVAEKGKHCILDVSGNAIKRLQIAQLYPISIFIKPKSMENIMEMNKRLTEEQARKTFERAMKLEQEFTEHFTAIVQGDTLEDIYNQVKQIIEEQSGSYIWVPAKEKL
row,effect of a mutation on the interaction,Variant
1,decreasing interaction,V1153A

# Variants of: B1
# Settings: with dlg2_rat Dlg2, Q63622
# Sequence of dlg2_rat Dlg2, Q63622 (Q63622 whole entry, looked up): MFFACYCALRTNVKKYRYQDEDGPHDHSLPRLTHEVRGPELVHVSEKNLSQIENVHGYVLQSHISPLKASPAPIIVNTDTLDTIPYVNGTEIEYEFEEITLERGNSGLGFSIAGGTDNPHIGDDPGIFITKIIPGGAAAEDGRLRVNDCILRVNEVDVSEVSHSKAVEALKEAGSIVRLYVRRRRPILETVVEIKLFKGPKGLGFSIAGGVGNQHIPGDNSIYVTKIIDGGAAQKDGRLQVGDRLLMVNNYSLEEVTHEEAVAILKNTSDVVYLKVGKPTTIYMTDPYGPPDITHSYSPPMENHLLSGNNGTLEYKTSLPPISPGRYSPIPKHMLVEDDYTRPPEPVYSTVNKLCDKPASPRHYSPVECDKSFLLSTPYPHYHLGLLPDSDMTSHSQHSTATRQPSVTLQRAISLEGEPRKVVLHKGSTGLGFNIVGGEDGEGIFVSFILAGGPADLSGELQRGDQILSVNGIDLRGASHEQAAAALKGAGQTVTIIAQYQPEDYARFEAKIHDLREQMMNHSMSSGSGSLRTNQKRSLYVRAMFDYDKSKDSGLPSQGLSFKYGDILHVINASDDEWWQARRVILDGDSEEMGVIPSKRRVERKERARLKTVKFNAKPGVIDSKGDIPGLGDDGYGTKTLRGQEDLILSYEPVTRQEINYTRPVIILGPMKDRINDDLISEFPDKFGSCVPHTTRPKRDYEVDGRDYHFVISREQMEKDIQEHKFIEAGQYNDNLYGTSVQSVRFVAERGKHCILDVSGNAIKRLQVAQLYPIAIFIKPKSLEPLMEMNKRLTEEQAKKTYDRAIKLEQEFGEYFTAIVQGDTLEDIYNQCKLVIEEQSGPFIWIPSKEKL
row,effect of a mutation on the interaction,Variant
1,disrupting interaction,V1153A

# Variants of: B1
# Settings: with magi1_human MAGI1, Q96QZ7
row,effect of a mutation on the interaction,Variant
1,disrupting interaction,V1153A
